Experiments:
Assay type in all cases: binding
Nedd8 [1] = molecular target: T1, Nedd8 (Homo sapiens, UniProt Q15843); experiment: tSR competition assay with Atto532-tagged ubiquitin, relative fluorescence; settings: 5 nM Atto532-tagged ubiquitin protein and 600 nM tSR
Procedure: (§1) A competition assay was performed where unconjugated free ubiquitin proteins, different kinds of conjugated free ubiquitin proteins, and Nedd8 were added to mixtures of 5 nM Atto532-tagged ubiquitin protein and 600 nM tSR. The relative fluorescence was measured. […] The Ki values for unconjugated ubiquitin proteins and the different kinds of conjugated free ubiquitin proteins are provided in a table (bottom).
as §1, with “The binding affinities of tSR were determined (see FIG. 25). A competition” for “A competition”, “performed where free ubiquitin” for “performed where unconjugated free ubiquitin”, “a table (see FIG. 25).” for “a table (bottom).”

Nedd8 [2] = molecular target: T1, Nedd8; experiment: Direct titration of Alexa488-tagged tSR, relative fluorescence; settings: 10 nM Alexa488 tSR
Procedure: (§2) The relative fluorescence intensity changes of Alexa488-tagged tSR when ubiquitin is added is shown (middle). The relative fluorescence of 10 nM Alexa488 tSR when different concentrations of unconjugated ubiquitin protein, conjugated ubiquitin protein, or Nedd8 are added (right).
(§3) The tSR can be used for direct titration experiments (see FIG. 26). The relative fluorescence intensity changes of Alexa488-tagged tSR when ubiquitin is added at varying concentrations. The relative fluorescence of 10 nM Alexa488 tSR was measured with different concentrations of unconjugated ubiquitin protein, conjugated ubiquitin protein, or Nedd8.

[3] = system: conjugated ubiquitin protein; experiment: as above; settings: 10 nM Alexa488 tSR
Procedure: as §2, §3

[4] = molecular target: unconjugated ubiquitin protein (Homo sapiens, UniProt P0CG48); experiment: as above; settings: 10 nM Alexa488 tSR
Procedure: as §2, §3

Nedd8 [5] = molecular target: T1, Nedd8; experiment: Fluorescence intensity titration of Atto532-tIV with free Nedd8
Procedure: FIG. 22 provides a graph showing that Atto532-tagged tIV L1 Cys binds to free Nedd8 with a Kd of several μM.
Increasing concentrations of free Nedd8 protein were added to Atto532-tIV, and the fluorescence intensity was measured (see FIG. 22).

T1 sequence (Q15843 1-76 limits assumed): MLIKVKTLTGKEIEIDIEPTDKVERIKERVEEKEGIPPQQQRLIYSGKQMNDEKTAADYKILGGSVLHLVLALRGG

B1: tSR: universal chimeric polypeptide sensor, SEQ ID NO: 7: S5a UIM and Ruz domains connected by a linker (protein)
chain: MPSSHHHHHHSSGLVPRGSHMTEEEQIAYAMQMSLREAGGGSDLLCKKGCGYYGNPAWQGFCSKCWREEAHKCAAERAAAE
modifications: tSR - chimeric polypeptide comprising two binding domains that bind ubiquitin in non-overlapping regions
specificity against Nedd8 (Nedd8 [1]): specificity against Nedd8

B2: Alexa488-tagged tSR: tSR tagged with Alexa488 fluorophore (conjugate)
chain: B1 chain
binding of Nedd8 protein (Nedd8 [2]): but not Nedd8 protein | binding of conjugated ubiquitin protein [3]: detected | binding of unconjugated ubiquitin protein [4]: detected

B3: tIV: chimeric protein with two ubiquitin binding domains, IsoT ZnF and Vps27 UIM, SEQ ID NO: 5 (protein)
chain: MGSSHHHHHHSSGLVPRGSHMKQEVQAWDGEVRQVSKHAFSLKQLDNPARIPPSGWKCSKCDMRENLWLNLTDGSILCGRRYFDGSGGNNHAVEHYRETGYPLAVKLGTITPDGADVWSYDEDDMVLDPSLAEHLSHFGIDMLKMQKGSCAAAEEAELDLKAAIQESLREA
modifications: tIV - Atto532-tagged chimeric polypeptide comprising two binding domains that bind ubiquitin in non-overlapping regions
binding affinity for free Nedd8 protein compared with conjugated Nedd8 protein (Nedd8 [5]; predicted from binding interactions of Vps27UIM and Nedd8): greater binding affinity

B4: Atto532-tagged tIV L1 Cys: tIV L1 Cys (SEQ ID NO: 5) tagged with Atto532 fluorophore at the linker Cys (conjugate)
chain: B3 chain
modifications: Atto532 fluorophore on linker Cys; tIV - Atto532-tagged chimeric polypeptide comprising two binding domains that bind ubiquitin in non-overlapping regions
KD for Nedd8 (Nedd8 [5]; free Nedd8 added to Atto532-tIV, fluorescence intensity): several
